The target in assay [1] is human CD1d loaded with α-galactosylceramide, biotinylated (human) (UniProt P15813). Description: SPR.
The target of assay [2] is mouse CD1d loaded with α-galactosylceramide, biotinylated (for SPR) (mouse) (UniProt P11609). Briefly: SPR. (Surface plasmon resonance follows binding to a sensor surface in real time, without labels.)
UniProt P11609, sequence (P11609 22-336): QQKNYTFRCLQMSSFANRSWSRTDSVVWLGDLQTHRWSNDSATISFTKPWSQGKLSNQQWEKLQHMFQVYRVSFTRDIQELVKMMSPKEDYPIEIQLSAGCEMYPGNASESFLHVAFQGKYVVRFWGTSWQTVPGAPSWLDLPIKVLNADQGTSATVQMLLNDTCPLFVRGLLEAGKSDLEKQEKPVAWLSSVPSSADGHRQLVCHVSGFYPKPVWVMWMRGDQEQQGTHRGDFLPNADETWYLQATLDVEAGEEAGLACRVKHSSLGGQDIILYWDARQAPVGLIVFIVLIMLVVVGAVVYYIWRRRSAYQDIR

UniProt P15813, sequence (P15813 20-335): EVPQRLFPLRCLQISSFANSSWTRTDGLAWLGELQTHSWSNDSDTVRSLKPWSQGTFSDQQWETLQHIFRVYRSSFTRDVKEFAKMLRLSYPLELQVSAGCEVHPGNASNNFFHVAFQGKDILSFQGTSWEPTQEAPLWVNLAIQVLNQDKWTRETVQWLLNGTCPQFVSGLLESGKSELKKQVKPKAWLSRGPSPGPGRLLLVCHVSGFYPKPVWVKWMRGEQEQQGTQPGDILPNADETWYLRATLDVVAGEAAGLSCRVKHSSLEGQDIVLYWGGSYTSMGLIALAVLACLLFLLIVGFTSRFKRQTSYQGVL

As a reminder, the Kd is the free concentration of one partner at which half of the binding sites on the other are occupied at equilibrium, for simple one-to-one binding. Low readings indicate higher affinity, high ones lower affinity. As for “NKT15 TCR (human semi-invariant NKT cell αβ T cell receptor, soluble extracellular domains)”, the Kd is 10 µM in assay [1] and 20 µM in assay [2].

“NKT15α-chain/NKT15 β-chain engrafted with the LC13 CDR3β-loop (TCR)”: the fold lower affinity than NKT15 in assay [1] and in assay [2] was 5 to 10 fold throughout.

The record behind these values is article PMC2118261.
